# Assay results taken from patent US20030073808.
# How the values were obtained:
# [1] = tested on: ChePep-2 (IDA coupled with a peptide having SEQ ID No. 5)
# [2] = tested on: ChePep-3 (PSDE combined with a peptide having SEQ ID No. 6)
# [3] = tested on: ChePep-1 (PSDE coupled with the peptide having SEQ ID No. 4)
# [4] = tested on: ChePep-5 (AFTA combined with a peptide having SEQ ID No. 7)
# [5] = tested on: ChePep-6 (AFTA combined with a peptide having SEQ ID No. 8)
substance,measurement,setting,value
Active MMP-9 enzyme,FRET substrate peptide cleavage by MMP-9,[1],regulates MMP-9 in the fluorescence resonance energy transfer (FRET) assay in a dose dependent manner
same,FRET substrate peptide cleavage by MMP-9,[2],show nearly identical ability to regulate MMP-9 in the standard FRET assay
same,hydrolysis of fluoresceinated collagen by MMP-9,[3],prevents the enzyme from degrading fluoresceinated collagen in a dose dependent manner
same,FRET substrate peptide cleavage by MMP-9,[4],ChePep-5 proves to be a better regulator than the IDA or the PSDE based chelating peptides
same,FRET substrate peptide cleavage by MMP-9,[5],ChePep-6 is an effective MMP-9 regulator at low molar stoichiometries
